Biological target: RPP1^TIR (residue 83-254) (Arabidopsis) (UniProt F4J339)
Assay: crystal structure

- stoichiometry N: 4
Substance: RPP1^TIR (residue 83-254) (from UniProt F4J339 83-254) (domain or fragment)
